US20260275280A1, “DIRECTED DIFFERENTIATION PROTOCOLS TO DERIVE BONE FIDE SPINAL SENSORY INTERNEURONS” (THE REGENTS OF THE UNIVERSITY OF CALIFORNIA, priority 2022, published 2026)
Entries after “also recorded” stand apart in the source; their conditions may differ.

Columns and labels:
Format in all cases: cell-based, mouse
Wnt/β-catenin signaling = assay: Inhibition of Wnt/β-catenin signaling during dI differentiation (IHC and RT-qPCR at day 9)
Experimental: (§1) The mouse ESC line, MM13, was routinely maintained in ES cell media (DMEM+20% FBS) with 100u/ml of mouse leukocyte inducing factor (LIF). […] To prepare cells for the differentiation, ESC colonies were dissociated with 0.25% trypsin and plated on gelatin coated plates at 1:10 dilution to reduce MEF transfer. Cells cultured on gelatin coated plates and allowed to proliferate for 1-2 days. To initiate differentiation, cells were plated on 0.1% gelatin coated 24-well CellBIND dishes (Corning) at 20,000 cells/ml density in 0.5 ml/well N2/B27 medium that contains 10 ng/ml basic fibroblast growth factor (bFGF). The N2/B27 medium contains 1:1 portions of Advanced Dulbecco's modified Eagle Media (DMEM) F12 (Hyclone) and Neurobasal media (Thermo Fisher Scientific) supplemented with 0.5×N2, 1×B27 supplement (with Vitamin A), 2 mM L-glutamine, 0.1 mM 2-mercaptoethanol (ME), and 1% BSA. On day 1, small colonies of cells can be observed attached to the bottom of the wells. On day 2, cells were supplemented with 10 ng/ml bFGF and 5 μM CHIR99021 for 24 hours to induce a neuromesodermal identity (Gouti et al., 2014). On day 3, media was changed as follows: for protocol 1, cells were exposed to 100 nM RA for 48 hrs. For protocol 2, 10 ng/ml human recombinant BMP4 (Thermo Fisher Scientific) was added concomitantly with 100 nM RA (RA+BMP4) for 48 hrs. For protocol 3, cells were exposed to 100 nM RA for 24 hrs, followed by a pulse of RA+BMP4 for another 24 hours. To induce terminal differentiation in all three conditions, the medium containing growth factors was replaced with basic N2/B27 medium at day 5, and cell allowed to differentiate to day 9. At the end of the differentiation, the cultures were fixed for immunohistochemical analysis or lysed to obtain RNA for RNA-Seq or quantitative reverse transcriptase PCR analysis.
Immunohistochemistry: For 2d differentiations, adherent cultures were first washed with 1×PBS and fixed with fresh cold 4% PFA for 10 minutes in the well. Following fixation, cultures were washed twice with 1×PBS to remove any remaining PFA. Cells were blocked with 1×PBS with 1% heat inactivated horse serum for 1 hour and primary antibodies are added in the blocking solution for an overnight incubation at 4C. Following washes, species appropriate secondary antibodies (Jackson Immuno Research Laboratories) were added in 1× PBT (PBS+0.1% […]) for 1 hr. The cultures were then washed with 1× PBT to remove traces of secondary antibodies and counterstained with DAPI to stain nuclei. Plates were then imaged on Zeiss LSM800 inverted confocal microscope at 10× magnification.
(§2) Quantitative (a) RT-PCR analysis: RNA was isolated with RNeasy Mini Kit (Qiagen, cat no. 74104), and converted to cDNA using Superscript IV First Strand Synthesis kit (Thermo Fisher Scientific). qRT-PCR was performed using SYBR Green PCR Master Mix (Applied Biosystems) on Roche 480 Lightcycler (Roche). The relative fold expression was calculated using 2-AACt method of comparing the expression of the target gene with that of the housekeeping gene glyceraldehyde 3-phosphate dehydrogenase (Gapdh). All experiments were repeated at least 2-3 times (technical replicates) from at least two independent differentiations (biological replicates), and data is represented as mean±SEM.
To assess the role of canonical Wnt signaling in dI fate specification, we added endo-IWR1 (IWR1e), a small molecule inhibitor which blocks p-catenin function (Chen et al., 2009) to dPs from day 4-6 (FIG. 5A). By day 9, the RA+BMP4 condition robustly induces dlis-dI3s (FIG. 5F-51, 5N-5P).

[1] = system: mESCs-derived NMPs / NPCs; assay: Bulk RNA-Seq differential expression and qRT-PCR after RA or RA+BMP4 treatment; settings: AGN193109 added in 10 molar excess with the RA
Experimental: Bulk-RNA sequencing and data processing: Total cell lysate was obtained in buffer RLT (Qiagen) at different time points from three independent differentiations (biological replicates) conducted parallelly. RNA extraction was performed using RNeasy mini kit (Qiagen) and the quality was determined using Agilent Technologies 2100 Bioanalyzer and only samples with a RIN score >8.0 were sequenced. Stranded libraries were constructed using Universal plus mRNA sequencing kit (NuGEN) and sequenced onto 2 lanes of NovaseqS1 to generate 30 million reads/sample. Obtained reads were aligned to the latest mouse reference genome (mm10) using the STAR spliced read aligner. Pearson correlation and principal component analysis (PCA) was performed to determine the similarities among the samples and replicates. Differentially expressed genes were identified using DESeq and EdgeR package on R platform. The candidate genes were selected using cutoff false discovery rate (FDR <0.05) and log fold change (>2). Differentially expressed gene lists were further subjected to Enrichr, Metascape (Zhou et al., 2019) and DAVID functional annotation tools to identify enriched gene ontology (GO) categories.
as §2
We took advantage of the directed differentiation protocols to investigate the unresolved mechanisms by which RA and BMP direct dI fate specification. To further validate the use of a stem cell model, we first assessed the genetic basis of the fate decisions mediated by RA signaling. During the 24 hr pulse of RA at day 3, Pax3 levels gradually increase, while T expression concomitantly declines (FIG. 12A). […] To identify the transcriptional changes occurring during this first commitment step, we performed bulk RNA-Seq at day 3 (NMP state), day 3.25 (early transcriptional response to RA) and day 4 (dP state1) (FIG. 11B).
We hypothesized that the addition of BMP4 to NPCs in dP state1, directs them to a more dorsal dP state, i.e. dP state2 (FIG. 11A). To define the transcriptional changes occurring after BMP4 addition, we performed bulk RNA-Seq at day 4 (dP state1), day 4.25 (early transcriptional response to RA+BMP4) and at day 5 (dP state2) (FIG. 4A). […] 78 genes, out of 411, were common between both time points (FIGS. 4B, 13B). Focusing on these common genes, we identified enriched functional processes using GO analyses. The GO terms included the BMP signaling pathway (FIG. 4C, Table 3), confirming that the analysis identified BMP responsive genes.

[2] = system: mESCs derived spinal NPCs; assay: Sufficiency of Wnt ligands or CHIR for dI fates (RT-qPCR at day 9); settings: for identity of the BMP4-mediated dI fates (Lhx2, Foxd3, IsI2): RA+BMP4 protocol, Wnts 100 ng/ml or CHIR 5 μM for 24 hrs at day 5; for induction of BMP4 dependent dI fates (Lhx2, Foxd3, IsI1): added with RA at day 4 for 24 hrs, Wnts 100 ng/ml, CHIR 5 μM
Experimental: as §1, §2
We assessed these models, first by determining the effect of canonical Wnts (Wnt1, Wnt2, and Wnt3a), a non-canonical Wnt (Wnt9b) and a small molecule Wnt agonist (CHIR99021) on dI identity in the RA±BMP4 protocols. When Wnts were added in combination with RA, they were unable to induce the dorsal-most dIs by day 9 (FIG. 14A). […] Thus, Wnts are not sufficient to direct dI fate identity.

[3] = inhibitor added to RA+BMP4 (protocol 3) from day 4, 48 hours, day 9

For `O=C(Nc1cccc2cccnc12)c1ccc(N2C(=O)[C@@H]3[C@H](C2=O)[C@@H]2C=C[C@H]3C2)cc1` [IWR1e], the “dI1 and dI2 differentiation” value (Wnt/β-catenin signaling; [3]) was “loss of dI1s and dI2s; also recorded: dramatic reduction in the dI1 and dI2 populations; also recorded: most strongly suppresses the differentiation of the BMP4-dependent dI1/dI2s”, the dI3 differentiation (Wnt/β-catenin signaling; [3]) was “dI3 differentiation was less affected; also recorded: modest increase in dI3s; also recorded: more modest effect on dI3s” and the “dI4, dI5, dI6 fates” value (Wnt/β-catenin signaling; [3]) was “no suppression of Pax2+dI4/dI6 and Lmx1b+dI5 fates; also recorded: concomitant increases in dI4, dI5 and dI6s; also recorded: increase in the expression of dI4-dI6 specific genes”. The “dP markers Pax3, Pax7, Olig3” value (Wnt/β-catenin signaling; inhibitor added to RA+BMP4 condition) was “did not erode Pax3+pan-dorsal identity or Pax7 expression, but nevertheless did suppress Olig3; also recorded: prevents both the suppression of Pax7+dPs and induction of Olig3+dPs”.

For `Cc1ccc(C2=CCC(C)(C)c3ccc(C#Cc4ccc(C(=O)O)cc4)cc32)cc1` [AGN193109], the “upregulation of the RA-induced genes” value [1] was “not upregulated”.

B1: Wnt2: human recombinant Wnt2, canonical Wnt (protein, UniProt P09544 26-360, looked up)
Protein Wnt-2: SWWYMRATGGSSRVMCDNVPGLVSSQRQLCHRHPDVMRAISQGVAEWTAECQHQFRQHRWNCNTLDRDHSLFGRVLLRSSRESAFVYAISSAGVVFAITRACSQGEVKSCSCDPKKMGSAKDSKGIFDWGGCSDNIDYGIKFARAFVDAKERKGKDARALMNLHNNRAGRKAVKRFLKQECKCHGVSGSCTLRTCWLAMADFRKTGDYLWRKYNGAIQVVMNQDGTGFTVANERFKKPTKNDLVYFENSPDYCIRDREAGSLGTAGRVCNLTSRGMDSCEVMCCGRGYDTSHVTRMTKCGCKFHWCCAVRCQDCLEALDVHTCKAPKNADWTTAT
With B1 the “identity of the BMP4-mediated dI fates (Lhx2, Foxd3, IsI2)” value (“identity of the BMP4-mediated dI fates” below) [2] was “no significant effect” and the “induction of BMP4 dependent dI fates (Lhx2, Foxd3, IsI1)” value (“induction of BMP4 dependent dI fates” below) [2] was “neither canonical Wnts (Wnt1, Wnt2, Wnt3a, Wnt4, all at 100 ng/ml) nor a non-canonical Wnt ligand (Wnt9b) induce the BMP4 dependent dI fates”.

B2: Wnt3a: human recombinant Wnt3a, canonical Wnt (protein, UniProt P56704 19-352, looked up)
Protein Wnt-3a: SYPIWWSLAVGPQYSSLGSQPILCASIPGLVPKQLRFCRNYVEIMPSVAEGIKIGIQECQHQFRGRRWNCTTVHDSLAIFGPVLDKATRESAFVHAIASAGVAFAVTRSCAEGTAAICGCSSRHQGSPGKGWKWGGCSEDIEFGGMVSREFADARENRPDARSAMNRHNNEAGRQAIASHMHLKCKCHGLSGSCEVKTCWWSQPDFRAIGDFLKDKYDSASEMVVEKHRESRGWVETLRPRYTYFKVPTERDLVYYEASPNFCEPNPETGSFGTRDRTCNVSSHGIDGCDLLCCGRGHNARAERRREKCRCVFHWCCYVSCQECTRVYDVHTCK
For B2, the “identity of the BMP4-mediated dI fates” value [2] was “no significant effect” and the “induction of BMP4 dependent dI fates” value [2] was “neither canonical Wnts (Wnt1, Wnt2, Wnt3a, Wnt4, all at 100 ng/ml) nor a non-canonical Wnt ligand (Wnt9b) induce the BMP4 dependent dI fates”.

B3: Wnt9b: mouse recombinant Wnt9b, non-canonical Wnt ligand (protein, UniProt O35468 24-359, looked up)
Protein Wnt-9b: AAYFGLTGREVLTPFPGLGTAAAPAQAGAHLKQCDLLKLSRRQKQLCRREPGLAETLRDAAHLGLLECQFQFRQERWNCSLEGRTGLLQRGFKETAFLYAVSAAALTHALARACSAGRMERCTCDDSPGLESRQAWQWGVCGDNLKYSTKFLSNFLGPKRGSKDLRARADAHNTHVGIKAVKSGLRTTCKCHGVSGSCAVRTCWKQLSPFRETGQVLKLRYDTAVKVSSATNEALGRLELWAPAKPGGPAKGLAPRPGDLVYMEDSPSFCRPSKYSPGTAGRVCSRDSSCSSLCCGRGYDTQSRMVVFSCHCQVQWCCYVECQQCAQQELVYTCKR
In the case of B3, the “identity of the BMP4-mediated dI fates” value [2] is reported as “no significant effect” and the “induction of BMP4 dependent dI fates” value [2] is reported as “neither canonical Wnts (Wnt1, Wnt2, Wnt3a, Wnt4, all at 100 ng/ml) nor a non-canonical Wnt ligand (Wnt9b) induce the BMP4 dependent dI fates”.

B4: Wnt1: human recombinant Wnt1, canonical Wnt (protein, UniProt P04628 28-370, looked up)
Proto-oncogene Wnt-1: ANSSGRWWGIVNVASSTNLLTDSKSLQLVLEPSLQLLSRKQRRLIRQNPGILHSVSGGLQSAVRECKWQFRNRRWNCPTAPGPHLFGKIVNRGCRETAFIFAITSAGVTHSVARSCSEGSIESCTCDYRRRGPGGPDWHWGGCSDNIDFGRLFGREFVDSGEKGRDLRFLMNLHNNEAGRTTVFSEMRQECKCHGMSGSCTVRTCWMRLPTLRAVGDVLRDRFDGASRVLYGNRGSNRASRAELLRLEPEDPAHKPPSPHDLVYFEKSPNFCTYSGRLGTAGTAGRACNSSSPALDGCELLCCGRGHRTRTQRVTERCNCTFHWCCHVSCRNCTHTRVLHECL
With B4 the “identity of the BMP4-mediated dI fates” value [2] was “no significant effect” and the “induction of BMP4 dependent dI fates” value [2] was “neither canonical Wnts (Wnt1, Wnt2, Wnt3a, Wnt4, all at 100 ng/ml) nor a non-canonical Wnt ligand (Wnt9b) induce the BMP4 dependent dI fates”.

B5: Wnt4: mouse recombinant Wnt4 (protein, UniProt P22724 23-351, looked up)
Protein Wnt-4: SNWLYLAKLSSVGSISEEETCEKLKGLIQRQVQMCKRNLEVMDSVRRGAQLAIEECQYQFRNRRWNCSTLDSLPVFGKVVTQGTREAAFVYAISSAGVAFAVTRACSSGELEKCGCDRTVHGVSPQGFQWSGCSDNIAYGVAFSQSFVDVRERSKGASSSRALMNLHNNEAGRKAILTHMRVECKCHGVSGSCEVKTCWRAVPPFRQVGHALKEKFDGATEVEPRRVGSSRALVPRNAQFKPHTDEDLVYLEPSPDFCEQDIRSGVLGTRGRTCNKTSKAIDGCELLCCGRGFHTAQVELAERCGCRFHWCCFVKCRQCQRLVEMHTCR
B5 was tested, and the “identity of the BMP4-mediated dI fates” value [2] was “no significant effect” and the “induction of BMP4 dependent dI fates” value [2] was “neither canonical Wnts (Wnt1, Wnt2, Wnt3a, Wnt4, all at 100 ng/ml) nor a non-canonical Wnt ligand (Wnt9b) induce the BMP4 dependent dI fates”.
